The values below are quoted from earlier work in article PMC3817581.

Targets include Asp27 (UniProt position 156, PLCGSDNKTYG); Asp7 (UniProt position 136, AAVSVDCSEYP); Glu10 (UniProt position 139, SVDCSEYPKPA); Glu19 (UniProt position 148, PACTLEYRPLC); Glu43 (UniProt position 172, CNAVVESNGTL).
Settings in all cases: not stated in this article

On to “Turkey ovomucoid third domain (OMTKY3) (Meleagris gallopavo)”, for which the pKa (usually the pH at which an ionisable group is half protonated) is reported as 2.2 with Asp27; 2.5 with Asp7; 4.1 with Glu10; 3.2 with Glu19; 4.8 in the series with Glu43.
